Test results: publication PMC6437208

Target: CsgB-His (curli nucleator CsgB with C-terminal poly-histidine tag) (E. coli) (UniProt P0ABK7)
UniProt P0ABK7, sequence (P0ABK7 22-151): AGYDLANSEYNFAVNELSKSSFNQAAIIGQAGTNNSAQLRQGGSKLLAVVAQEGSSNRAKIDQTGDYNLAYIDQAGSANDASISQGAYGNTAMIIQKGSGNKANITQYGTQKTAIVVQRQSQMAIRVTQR

Work on CsgA R5 subunit domain peptide yielded a ThT assay: reduction of tau50 of R5 fibril formation in the presence of CB-origami of 1.5 h.
